Laboratory results reported in the Immune Epitope Database (IEDB).

Key:
Test in all cases: IEDB peptide-MHC binding, purified MHC/competitive/radioactivity; ≥ and ≤ were set here for values at or beyond the usual limits of such assays
Conditions in all cases: source organism: Homo sapiens
HLA-A*03:01 = molecular target: HLA-A*03:01
HLA-A*11:01 = molecular target: HLA-A*11:01
HLA-B*07:02 = molecular target: HLA-B*07:02

Sequence	IC50 (HLA-A*03:01) [nM]	IC50 (HLA-A*11:01) [nM]	IC50 (HLA-B*07:02) [nM]
YMVPFIPLYR	26.3	38.5	–
SSSHWLRLPR	–	45.5	–
LPHSSSHWL	–	–	17.2
VVLASLIYRR	161	80.6	–
AVVLASLIYR	–	3.5	–
LIGCWYCRRR	179	–	–
SIFEQWLRR	45.5	4.6	–
GTQCALTRR	–	31.3	–
HTMEVTVYHR	179	–	–
VVLASLIYR	17.9	3.6	–
QTSAGHFPR	–	16.1	–
